Experimental data reported in PMC6690855.

Molecular target: Caut-bCAstrepC (C-terminal STREPII-tagged β-class carbonic anhydrase of Clostridium autoethanogenum) (Clostridium autoethanogenum)
Test: AUC; sedimentation velocity, 50,000 rpm, 2-fold protein dilution series starting at 0.7 mg/ml, absorbance at 280 nm and interference optics; SEDFIT c(s) and non-interacting discrete species (NIDS) models

stoichiometry N: 2
Substance: Caut-bCAstrepC (C-terminal STREPII-tagged β-class carbonic anhydrase of Clostridium autoethanogenum) (enzyme)
